How the values were obtained:
[1] = substrate: C[C@H]1[C@H](NC(=O)/C(=N\OC(C)(C)C(=O)O)c2csc(N)n2)C(=O)N1S(=O)(=O)O; details: Enterobacter cloacae
Description: (§3) Ratio of Kcat to Km for Enterobacter cloacae IMI1 beta lactamase Escherichia coli DH5alpha by SDS-PAGE

[2] = substrate: CO/N=C(\C(=O)N[C@@H]1C(=O)N2C(C(=O)O)=C(COC(C)=O)CS[C@H]12)c1csc(N)n1; details: Enterobacter cloacae
Description: as §3

[3] = substrate: CO[C@@]1(NC(=O)Cc2cccs2)C(=O)N2C(C(=O)O)=C(COC(N)=O)CS[C@@H]21; details: Enterobacter cloacae
Description: as §3

[4] = substrate: C[C@@H](O)[C@H]1C(=O)N2C(C(=O)O)=C(S[C@@H]3CN[C@H](C(=O)N(C)C)C3)[C@H](C)[C@H]12; details: Enterobacter cloacae
Description: as §3

[5] = substrate: CC1(C)S[C@@H]2[C@H](NC(=O)[C@H](N)c3ccccc3)C(=O)N2[C@H]1C(=O)O; details: Enterobacter cloacae
Description: as §3

[6] = substrate: CC(=O)OCC1=C(C(=O)O)N2C(=O)[C@@H](NC(=O)Cc3cccs3)[C@H]2SC1; details: Enterobacter cloacae
Description: as §3

[7] = substrate: C[C@@H](O)[C@H]1C(=O)N2C(C(=O)O)=C(SCCNC=N)C[C@H]12; details: Enterobacter cloacae
Description: as §3

[8] = substrate: CCN1CCN(C(=O)N[C@@H](C(=O)N[C@@H]2C(=O)N3[C@@H]2SC(C)(C)[C@@H]3C(=O)O)c2ccccc2)C(=O)C1=O; details: Enterobacter cloacae
Description: as §3

[9] = substrate: CC(C)(O/N=C(\C(=O)N[C@@H]1C(=O)N2C(C(=O)[O-])=C(C[n+]3ccccc3)CS[C@H]12)c1csc(N)n1)C(=O)O; details: Enterobacter cloacae
Description: as §3

[10] = substrate: C[C@H]1[C@H](NC(=O)/C(=N\OC(C)(C)C(=O)O)c2csc(N)n2)C(=O)N1S(=O)(=O)O; details: Enterobacter cloacae; remark: listed apart in the source
Description: (§4) Activity of Enterobacter cloacae IMI1 beta lactamase expressed in Escherichia coli DH5alpha by SDS-PAGE

[11] = substrate: CO/N=C(\C(=O)N[C@@H]1C(=O)N2C(C(=O)O)=C(COC(C)=O)CS[C@H]12)c1csc(N)n1; details: Enterobacter cloacae; remark: listed apart in the source
Description: as §4

[12] = substrate: CO[C@@]1(NC(=O)Cc2cccs2)C(=O)N2C(C(=O)O)=C(COC(N)=O)CS[C@@H]21; details: Enterobacter cloacae; remark: listed apart in the source
Description: as §4

[13] = substrate: C[C@@H](O)[C@H]1C(=O)N2C(C(=O)O)=C(S[C@@H]3CN[C@H](C(=O)N(C)C)C3)[C@H](C)[C@H]12; details: Enterobacter cloacae; remark: listed apart in the source
Description: as §4

[14] = substrate: CC1(C)S[C@@H]2[C@H](NC(=O)[C@H](N)c3ccccc3)C(=O)N2[C@H]1C(=O)O; details: Enterobacter cloacae; remark: listed apart in the source
Description: as §4

[15] = substrate: CC(=O)OCC1=C(C(=O)O)N2C(=O)[C@@H](NC(=O)Cc3cccs3)[C@H]2SC1; details: Enterobacter cloacae; remark: listed apart in the source
Description: as §4

[16] = substrate: C[C@@H](O)[C@H]1C(=O)N2C(C(=O)O)=C(SCCNC=N)C[C@H]12; details: Enterobacter cloacae; remark: listed apart in the source
Description: as §4

[17] = substrate: CCN1CCN(C(=O)N[C@@H](C(=O)N[C@@H]2C(=O)N3[C@@H]2SC(C)(C)[C@@H]3C(=O)O)c2ccccc2)C(=O)C1=O; details: Enterobacter cloacae; remark: listed apart in the source
Description: as §4

[18] = substrate: CC(C)(O/N=C(\C(=O)N[C@@H]1C(=O)N2C(C(=O)[O-])=C(C[n+]3ccccc3)CS[C@H]12)c1csc(N)n1)C(=O)O; details: Enterobacter cloacae; remark: listed apart in the source
Description: as §4

[19] = substrate: C[C@H]1[C@H](NC(=O)/C(=N\OC(C)(C)C(=O)O)c2csc(N)n2)C(=O)N1S(=O)(=O)O; experiment: (§1) Ratio of Kcat to Km for Serratia fonticola UTAD54 SFC1 beta lactamase expressed in Escherichia coli BL21(DE3) by SDS-PAGE
[20] = substrate: CO/N=C(\C(=O)N[C@@H]1C(=O)N2C(C(=O)O)=C(COC(C)=O)CS[C@H]12)c1csc(N)n1; experiment: as §1
[21] = substrate: CO[C@@]1(NC(=O)Cc2cccs2)C(=O)N2C(C(=O)O)=C(COC(N)=O)CS[C@@H]21; experiment: as §1
[22] = substrate: C[C@@H](O)[C@H]1C(=O)N2C(C(=O)O)=C(S[C@@H]3CN[C@H](C(=O)N(C)C)C3)[C@H](C)[C@H]12; experiment: as §1
[23] = substrate: CC1(C)S[C@@H]2[C@H](NC(=O)[C@H](N)c3ccccc3)C(=O)N2[C@H]1C(=O)O; experiment: as §1
[24] = substrate: CC(=O)OCC1=C(C(=O)O)N2C(=O)[C@@H](NC(=O)Cc3cccs3)[C@H]2SC1; experiment: as §1
[25] = substrate: C[C@@H](O)[C@H]1C(=O)N2C(C(=O)O)=C(SCCNC=N)C[C@H]12; experiment: as §1
[26] = substrate: CCN1CCN(C(=O)N[C@@H](C(=O)N[C@@H]2C(=O)N3[C@@H]2SC(C)(C)[C@@H]3C(=O)O)c2ccccc2)C(=O)C1=O; experiment: as §1
[27] = substrate: CC(C)(O/N=C(\C(=O)N[C@@H]1C(=O)N2C(C(=O)[O-])=C(C[n+]3ccccc3)CS[C@H]12)c1csc(N)n1)C(=O)O; experiment: as §1
[28] = substrate: C[C@H]1[C@H](NC(=O)/C(=N\OC(C)(C)C(=O)O)c2csc(N)n2)C(=O)N1S(=O)(=O)O; experiment: (§2) Activity of Serratia fonticola UTAD54 SFC1 beta lactamase expressed in Escherichia coli BL21(DE3) by SDS-PAGE
[29] = substrate: CO/N=C(\C(=O)N[C@@H]1C(=O)N2C(C(=O)O)=C(COC(C)=O)CS[C@H]12)c1csc(N)n1; experiment: as §2
[30] = substrate: CO[C@@]1(NC(=O)Cc2cccs2)C(=O)N2C(C(=O)O)=C(COC(N)=O)CS[C@@H]21; experiment: as §2
[31] = substrate: C[C@@H](O)[C@H]1C(=O)N2C(C(=O)O)=C(S[C@@H]3CN[C@H](C(=O)N(C)C)C3)[C@H](C)[C@H]12; experiment: as §2
[32] = substrate: CC1(C)S[C@@H]2[C@H](NC(=O)[C@H](N)c3ccccc3)C(=O)N2[C@H]1C(=O)O; experiment: as §2
[33] = substrate: CC(=O)OCC1=C(C(=O)O)N2C(=O)[C@@H](NC(=O)Cc3cccs3)[C@H]2SC1; experiment: as §2
[34] = substrate: C[C@@H](O)[C@H]1C(=O)N2C(C(=O)O)=C(SCCNC=N)C[C@H]12; experiment: as §2
[35] = substrate: CCN1CCN(C(=O)N[C@@H](C(=O)N[C@@H]2C(=O)N3[C@@H]2SC(C)(C)[C@@H]3C(=O)O)c2ccccc2)C(=O)C1=O; experiment: as §2
[36] = substrate: CC(C)(O/N=C(\C(=O)N[C@@H]1C(=O)N2C(C(=O)[O-])=C(C[n+]3ccccc3)CS[C@H]12)c1csc(N)n1)C(=O)O; experiment: as §2

B1: IMI-1 (Enterobacter cloacae), Q46991 (protein)
chain: MSLNVKPSRIAILFSSCLVSISFFSQANTKGIDEIKDLETDFNGRIGVYALDTGSGKSFSYKANERFPLCSSFKGFLAAAVLKGSQDNQLNLNQIVNYNTRSLEFHSPITTKYKDNGMSLGDMAAAALQYSDNGATNIILERYIGGPEGMTKFMRSIGDKDFRLDRWELDLNTAIPGDERDTSTPAAVAKSLKTLALGNILNEREKETYQTWLKGNTTGAARIRASVPSDWVVGDKTGSCGAYGTANDYAVVWPKNRAPLIISVYTTKNEKEAKHEDKVIAEASRIAIDNLK
kcat/Km [1]: 550000 M⁻¹ s⁻¹ | kcat/Km [2]: 18000 M⁻¹ s⁻¹ | kcat/Km [3]: 6700 M⁻¹ s⁻¹ | kcat/Km [4]: 380000 M⁻¹ s⁻¹ | kcat/Km [5]: 240000 M⁻¹ s⁻¹ | kcat/Km [6]: 920000 M⁻¹ s⁻¹ | kcat/Km [7]: 520000 M⁻¹ s⁻¹ | kcat/Km [8]: 470000 M⁻¹ s⁻¹ | kcat/Km [9]: 24 M⁻¹ s⁻¹ | Km [10]: 93 µM | kcat [10]: 51 s⁻¹ | Km [11]: 190 µM | kcat [11]: 3.4 s⁻¹ | Km [12]: 45 µM | kcat [12]: 0.3 s⁻¹ | Km [13]: 26 µM | kcat [13]: 10 s⁻¹ | Km [14]: 780 µM | kcat [14]: 190 s⁻¹ | Km [15]: 130 µM | kcat [15]: 120 s⁻¹ | Km [16]: 170 µM | kcat [16]: 89 s⁻¹ | Km [17]: 13 µM | kcat [17]: 6.1 s⁻¹ | Km [18]: 270 µM | kcat [18]: 0.0068 s⁻¹

B2: Carbapenem-hydrolizing beta-lactamase SFC-1 (Serratia fonticola), Q6JP75 (protein)
chain: MSRTGRLSVFFSAIFPLLTLTNMAEAASQPPQVTVDKLKRLENDFGGRIGVYAIDTGSNKTFGYRANERFPLCSSFKGFLAAAVLSKSQQQEGLLNQRIRYDNRVMEPHSPVTEKQITTGMTVAELSAATLQYSDNGAANLLLEKLIGGPEGMTSFMRSIGDNVFRLDRWELELNSAIPGDDRDTSTPKAVAESMQKLAFGNVLGLTERHQLMDWFKGNTTGGARIRASVPANWVVGDKTGTCGVYGTANDYAVIWPVGHAPIVLAVYTSKPDKNSKHSDAVIADASRIVLESFNIDALRMATGKSIGF
kcat/Km [19]: 335000 M⁻¹ s⁻¹ | kcat/Km [20]: 93300 M⁻¹ s⁻¹ | kcat/Km [21]: 54500 M⁻¹ s⁻¹ | kcat/Km [22]: 250000 M⁻¹ s⁻¹ | kcat/Km [23]: 881000 M⁻¹ s⁻¹ | kcat/Km [24]: 2.17e+06 M⁻¹ s⁻¹ | kcat/Km [25]: 659000 M⁻¹ s⁻¹ | kcat/Km [26]: 1.19e+06 M⁻¹ s⁻¹ | kcat/Km [27]: 40400 M⁻¹ s⁻¹ | Km [28]: 484 µM | kcat [28]: 162 s⁻¹ | Km [29]: 89 µM | kcat [29]: 8.3 s⁻¹ | Km [30]: 77 µM | kcat [30]: 4.2 s⁻¹ | Km [31]: 26 µM | kcat [31]: 6.5 s⁻¹ | Km [32]: 176 µM | kcat [32]: 155 s⁻¹ | Km [33]: 129 µM | kcat [33]: 280 s⁻¹ | Km [34]: 82 µM | kcat [34]: 54 s⁻¹ | Km [35]: 38 µM | kcat [35]: 44.7 s⁻¹ | Km [36]: 52 µM | kcat [36]: 2.1 s⁻¹
